Experimental findings from patent US20250340637A1 (ABPRO, published 2025) are described below.

To fix the notation:
B1: ABP100s.1 (antibody, V domains shown)
VH: EVQLVESGGGLVQPGGSLRLSCAASGFTFNTYAMNWVRQAPGKGLEWVARIRSKYNNYATYYADSVKGRFTISRDDSQSSLYLQMNSLKTEDTAVYYCVRHGNFGNSYVSWFAYWGQGTLVTVSS
VL: QAVVTQEPSFSVSPGGTVTLTCGSSTGAVTTSNYANWVQQTPGQAFRGLIGGTNKRAPGVPDRFSGSLIGDKAALTITGAQADDESDYFCALWYSNLWVFGGGTKLTVL
B2: ABP100s.5.4 (antibody, V domains shown)
VH: EVQLVESGGGLVQPGGSLKLSCAASGFTFNTYAMNWVRQAPGKGLEWVARIRSKYNNYATYYADSVKDRFTISRDDSKNTAYLQMNSLKTEDTAVYYCVRHGNFGNSYVSWFAYWGQGTLVTVSS
VL: QTVVTQEPSLTVSPGGTVTLTCRSSTGAVTTSNYANWVQQKPGQAFRGLIGGTNKRAPGVPARFSGSLLGGKAALTLSGVQPEDEAIYFCALWYSNLWVFGGGTKLTVL
B3: anti-HER2×CD3 BsAb comprising the anti-CD3 VH and VL sequences of ABP100s.10.0 (bispecific antibody, V domains shown)
VH 1: not shown
VL 1: not shown
VH 2: EVQLVESGGGLVQPGGSLKLSCAASGFTFNTYAMNWVRQAPGKCLEWVARIRSKYNNYATYYADSVKDRFTISRDDSKNTAYLQMNSLKTEDTAVYYCVRHGNFGNSYVSWFAYWGQGTLVTVSS
VL 2: QTVVTQEPSLTVSPGGTVTLTCRSSTGAVTTSNYANWVQQKPGQAFRGLIGGTNKRAPGVPARFSGSLLGGKAALTLSGVQPEDEAIYFCALWYSNLWVFGCGTKLTVL
notes: Only the four variable domains are tied to the tested molecule; also called 10.0 clone; parental construct
B4: ABP100s.5 (antibody, V domains shown)
VH: EVQLVESGGGLVQPGGSLKLSCAASGFTFNTYAMNWVRQAPGKGLEWVARIRSKYNNYATYYADSVKDRFTISRDDSKNTAYLQMNSLKTEDTAVYYCVRHGNFGNSYVSWFAYWGQGTLVTVSS
VL: QTVVTQEPSLTVSPGGTVTLTCRSSTGAVTTSNYANWVQQKPGQAFRGLIGGTNKRAPGVPARFSGSLLGGKAALTLSGVQPEDEAIYFCALWYSNLWVFGGGTKLEIK
B5: ABP100s.6 (antibody, V domains shown)
VH: EVQLVESGGGLVQPGGSLKLSCAASGFTFNTYAMNWVRQAPGKGLEWVARIRSKYNNYATYYADSVKDRFTISRDDSKNTAYLQMNSLKTEDTAVYYCVRHGNFGNSYVSWFAYWGQGTLVTVSS
VL: QTVVTQEPSLTVSPGGTVTLTCRSSTGAVTTSNYANWVQQKPGQAFRGLIGGTNKRAPGVPARFSGSLLGGKAALTLSGVQPEDEAEYFCALWYSNLWVFGGGTKLEIK
B6: ABP100s.2 (antibody, V domains shown)
VH: EVQLVESGGGLVQPGGSLRLSCAASGFTFNTYAMNWVRQAPGKGLEWVARIRSKYNNYATYYADSVKGRFTISRDDSKSSLYLQMNSLKTEDTAVYYCVRHGNFGNSYVSWFAYWGQGTLVTVSS
VL: QAVVTQEPSFSVSPGGTVTLTCGSSTGAVTTSNYANWVQQTPGQAFRGLIGGTNKRAPGVPDRFSGSLIGDKAALTITGAQADDESDYFCALWYSNLWVFGGGTKLTVL
B7: ABP100s.3 (antibody, V domains shown)
VH: EVQLVESGGGLVKPGGSLRLSCAASGFTFNTYAMNWVRQAPGKGLEWVARIRSKYNNYATYYADSVKGRFTISRDDSQSSLYLQMNSLRAEDTAVYYCVRHGNFGNSYVSWFAYWGQGTLVTVSS
VL: QAVVTQEPSFSVSPGGTVTLTCGSSTGAVTTSNYANWVQQTPGQAFRGLIGGTNKRAPGVPDRFSGSLIGDKAALTITGAQADDESDYFCALWYSNLWVFGGGTKLTVL
B8: ABP100s.7 (antibody, V domains shown)
VH: EVQLVESGGGLVQPGGSLKLSCAASGFTFNTYAMNWVRQASGKGLEWVARIRSKYNNYATYYADSVKDRFTISRDDSKNTAYLQMNSLKTEDTAVYYCVRHGNFGNSYVSWFAYWGQGTLVTVSS
VL: QTVVTQEPSLTVSPGGTVTLTCRSSTGAVTTSNYANWVQQKPGQAFRGLIGGTNKRAPGVPARFSGSLLGGKAALTLSGVQPEDEAIYFCALWYSNLWVFGGGTKLEIK
B9: ABP100s.10.2 (antibody, V domains shown)
VH: EVQLVESGGGLVQPGGSLKLSCAASGFTFNTYAMNWVRQAPGKCLEWVARIRSKYNNYATYYADSVKDRFTISRDDSKNTAYLQMNSLKTEDTAVYYCVRHGNFGNSYVSWFAYWGQGTLVTVSS
VL: QTVVTQEPSLTVSPGGTVTLTCRSSTGAVTTSNYANWVQQKPGQAFRGLIGGTNKRAPGVPARFSGSLLGGKAALTLSGVQPEDEAIYFCALWYSNLWVFGCGTKLTVL
B10: ABP100s.5.1 (antibody, V domains shown)
VH: EVQLVESGGGLVQPGGSLKLSCAASGFTFNTYAMNWVRQAPGKCLEWVARIRSKYNNYATYYADSVKDRFTISRDDSKNTAYLQMNSLKTEDTAVYYCVRHGNFGNSYVSWFAYWGQGTLVTVSS
VL: QTVVTQEPSLTVSPGGTVTLTCRSSTGAVTTSNYANWVQQKPGQAFRGLIGGTNKRAPGVPARFSGSLLGGKAALTLSGVQPEDEAIYFCALWYSNLWVFGCGTKLEIK
B11: ABP100s.10.3 (antibody, V domains shown)
VH: EVQLVESGGGLVQPGGSLKLSCAASGFTFNTYAMNWVRQAPGKCLEWVARIRSKYNNYATYYADSVKDRFTISRDDSKNTAYLQMNSLKTEDTAVYYCVRHGNFGNSYVSWFAYWGQGTLVTVSS
VL: QTVVTQEPSLTVSPGGTVTLTCRSSTGAVTTSNYANWVQQKPGQAFRGLIGGTNKRAPGVPARFSGSLLGGKAALTLSGVQPEDEAIYFCALWYSNLWVFGCGTKLTVL
B12: ABP100s.10.1 (antibody, V domains shown)
VH: EVQLVESGGGLVQPGGSLKLSCAASGFTFNTYAMNWVRQAPGKCLEWVARIRSKYNNYATYYADSVKDRFTISRDDSKNTAYLQMNSLKTEDTAVYYCVRHGNFGNSYVSWFAYWGQGTLVTVSS
VL: QTVVTQEPSLTVSPGGTVTLTCRSSTGAVTTSNYANWVQQKPGQAFRGLIGGTNKRAPGVPARFSGSLLGGKAALTLSGVQPEDEAIYFCALWYSNLWVFGCGTKLTVL
B13: ABP100s.5.2 (antibody, V domains shown)
VH: EVQLVESGGGLVQPGGSLKLSCAASGFTFNTYAMNWVRQAPGKGLEWVARIRSKYNNYATYYADSVKDRFTISRDDSKNTAYLQMNSLKTEDTAVYYCVRHGNFGNSYVSWFAYWGCGTLVTVSS
VL: QTVVTQEPSLTVSPGGTVTLTCRSSTGAVTTSNYANWVQQKPGQCFRGLIGGTNKRAPGVPARFSGSLLGGKAALTLSGVQPEDEAIYFCALWYSNLWVFGGGTKLEIK
B14: ABP100s.4 (antibody, V domains shown)
VH: EVQLVESGGGLVKPGGSLRLSCAASGFTFNTYAMNWVRQAPGKGLEWVARIRSKYNNYATYYADSVKGRFTISRDDAKSSLYLQMNSLRAEDTAVYYCVRHGNFGNSYVSWFAYWGQGTLVTVSS
VL: QAVVTQEPSFSVSPGGTVTLTCGSSTGAVTTSNYANWVQQTPGQAFRGLIGGTNKRAPGVPDRFSGSLIGDKAALTITGAQADDESDYFCALWYSNLWVFGGGTKLTVL
B15: ABP100s.23 (antibody, V domains shown)
VH: EVQLVESGGGLVKPGGSLRLSCAASGFTFNTYAMNWVRQAPGKGLEWVARIRSKYNNYATYYADSVKGRFTISRDDSQSSLYLQMNSLRAEDTAVYYCVRHGNFGNSYVSWFAYWGQGTLVTVSS
VL: QAVVTQEPSFSVSPGGTVTLTCGSSTGAVTTSNYANWVQQTPGQAFRGLIGGTNKRASGVPDRFSGSLLGDKAALTITGAQADDESDYYCALWYSNLWVFGGGTKLTVL
B16: ABP100s.24 (antibody, V domains shown)
VH: EVQLVESGGGLVKPGGSLRLSCAASGFTFNTYAMNWVRQAPGKGLEWVARIRSKYNNYATYYADSVKGRFTISRDDAKSSLYLQMNSLRAEDTAVYYCVRHGNFGNSYVSWFAYWGQGTLVTVSS
VL: QAVVTQEPSFSVSPGGTVTLTCGSSTGAVTTSNYANWVQQTPGQAFRGLIGGTNKRASGVPDRFSGSLLGDKAALTITGAQADDESDYYCALWYSNLWVFGGGTKLTVL
B17: ABP100s.22 (antibody, V domains shown)
VH: EVQLVESGGGLVQPGGSLRLSCAASGFTFNTYAMNWVRQAPGKGLEWVARIRSKYNNYATYYADSVKGRFTISRDDSKSSLYLQMNSLKTEDTAVYYCVRHGNFGNSYVSWFAYWGQGTLVTVSS
VL: QAVVTQEPSFSVSPGGTVTLTCGSSTGAVTTSNYANWVQQTPGQAFRGLIGGTNKRASGVPDRFSGSLLGDKAALTITGAQADDESDYYCALWYSNLWVFGGGTKLTVL
B18: ABP100s.13 (antibody, V domains shown)
VH: EVQLVESGGGLVQPGGSLRLSCAASGFTFNTYAMNWVRQAPGKGLEWVARIRSKYNNYATYYADSVKGRFTISRDDSQSSLYLQMNSLKTEDTAVYYCVRHGNFGNSYVSWFAYWGQGTLVTVSS
VL: QAVVTQEPSLTVSPGGTVTLTCGSSTGAVTTSNYANWVQQKPGQAFRGLIGGTNKRAPWTPARFSGSLIGDKAALTLSGAQPEDEAEYFCALWYSNLWVFGGGTKLTVL
B19: ABP100s.21 (antibody, V domains shown)
VH: EVQLVESGGGLVQPGGSLRLSCAASGFTFNTYAMNWVRQAPGKGLEWVARIRSKYNNYATYYADSVKGRFTISRDDSQSSLYLQMNSLKTEDTAVYYCVRHGNFGNSYVSWFAYWGQGTLVTVSS
VL: QAVVTQEPSFSVSPGGTVTLTCGSSTGAVTTSNYANWVQQTPGQAFRGLIGGTNKRASGVPDRFSGSLLGDKAALTITGAQADDESDYYCALWYSNLWVFGGGTKLTVL

T1 sequence (P07766 23-126 limits assumed): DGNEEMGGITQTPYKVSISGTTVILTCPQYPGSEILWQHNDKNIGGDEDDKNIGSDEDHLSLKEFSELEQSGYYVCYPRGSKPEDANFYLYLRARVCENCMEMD

One assay has as its target T1, HuCD3E (Homo sapiens, UniProt P07766 23-126, limits assumed).
T1 construct: Recombinant analyte in SPR and antigen in ELISA; also called human CD3; human CD3 epsilon
Briefly: SPR, Biacore 8K; CD3 Affinity column: Hi. On the technique in general: In SPR one partner is held on a chip, and binding of the other changes the refractive index at the surface.
What is called Kd is the equilibrium constant for the complex coming apart. Low values mean tighter binding, high ones weaker binding. In the case of B1, the Kd is under 10 nM.
For the molecule B2, the Kd was under 10 nM.
On the same count and under the same terms, the value for B3 was under 10 nM; that for B4 was under 10 nM.
The molecule B5 had a Kd of under 10 nM.
With B6, the Kd is under 10 nM.
On the same count and under the same terms, the result for B7 reads under 10 nM.
B8 gave a Kd of under 10 nM.
On to B9, for which the Kd was under 10 nM.
Still for that read-out and setting: the result for B10 reads under 10 nM.
Consider B11, for which the dissociation constant Kd was under 10 nM.
In turn, B12 registered a Kd of under 10 nM.
In turn, B13 showed a Kd of under 10 nM.
In turn, B14 displayed a Kd of under 10 nM.

The target of the next assay is T1, HuCD3E. The assay can be described thus: SPR, Biacore 8K; CD3 Affinity column: Hi. The source holds these as a separate data set. The procedure: Initially, the affinity measurement of the anti-CD3 clones were determined using a Surface Plasmon Resonance (SPR) biosensor, Biacore 8K (GE Healthcare). The equilibrium dissociation constant (KD) was calculated from the ratio of kd over ka. To determine the contribution of a specific residue to antibody affinity and expression, paratope mapping was performed by screening of NNK libraries. In brief, the VH and VL of the parental antibody were searched by using NCBI Ig-Blast (www.ncbi.nlm.nih.gov/projects/igblast/) and CDRs were defined by the KABAT delineation system. All residues within CDRs were defined and mutated by NNK method. Each individual NNK library was generated per residue based on the FASEBA platform with a theoretical diversity at 20. The DNA encoding both heavy chain and light chain were inserted into a mammalian expression vector, transfected into CHO-S cells, and stable clones of highest expression were selected. Supernatants were collected from shaker flasks and purified on protein A affinity chromatography.
Affinity ranking. Binding between the parental and affinity-tuned bispecific antibodies and human and cyno target proteins (HER2 and CD3) was validated by ELISA, and a Biacore 8K was used to study the kinetics of the interaction between the antigen and the bispecific antibodies.
B15 registered a Kd of under 10 nM.
For the molecule B16, the Kd is under 10 nM.
B17 displayed a Kd of under 10 nM.
B18: the Kd was under 10 nM.
For the molecule B19, the dissociation constant (Kd) was under 10 nM.
